Test results taken from patent publication US20250382359A1.

Target: GFRAL (co-expressed with RET on HEK293 stable cells) (UniProt Q6UXV0)
Assay: cell-based or functional assay

Chain of GFRAL (co-expressed with RET on HEK293 stable cells) (Q6UXV0 19-394 limits assumed): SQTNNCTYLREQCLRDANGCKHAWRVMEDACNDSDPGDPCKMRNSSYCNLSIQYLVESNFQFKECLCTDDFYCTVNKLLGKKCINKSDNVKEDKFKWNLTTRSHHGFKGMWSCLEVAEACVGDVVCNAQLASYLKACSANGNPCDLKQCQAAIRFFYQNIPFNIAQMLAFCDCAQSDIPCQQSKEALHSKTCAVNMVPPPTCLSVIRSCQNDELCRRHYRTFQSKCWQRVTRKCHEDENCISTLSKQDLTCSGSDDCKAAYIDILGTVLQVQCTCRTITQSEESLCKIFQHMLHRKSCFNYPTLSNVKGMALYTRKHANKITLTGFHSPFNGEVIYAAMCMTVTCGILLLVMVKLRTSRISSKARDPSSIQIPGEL

Luciferase assay, GFRAL/RET/SRE reporter HEK293 cells; EC80 of GDF15: 2 nM
pERK assay, GFRAL/RET HEK293 cells; EC80 of GDF15: 850 pM
Substance: GDF15 (ligand used in the GFRAL/RET cell assays) (from UniProt Q99988 197-308)
